Data: patent US20150141617A1, “PRODUCTION AND PURIFICATION OF ACTIVE EUKARYOTIC FORMYLGLYCINEGENERATING ENZYME (FGE) VARIANTS” (Universität Bielefeld, priority 2013, published 2015)

What was measured:
[1] = test system: cysteine-containing substrate peptide; assay: In vitro FGE activity assay with conditioned media from CHO-FD11 cells; type: biochemical; settings: 5 mM GSH vs 2 mM DTT, pH 9.3, conditioned media
Procedure: FGE activity was assayed using conditioned media that contained either secreted fl-FGE (obtained from CHO-FD FGE-His6 cells) or Δ72-FGE (obtained from CHO-FD Tet-On cells after transient co-transfection with pBI-FGE-HA and pIRES-Furin constructs). After expression for 48 h at 1% or 2.5% FCS containing DMEM, the medium was collected and centrifuged at 500×g for 5 min. The supernatant was analyzed by SDS-PAGE and western blotting and aliquots were directly used for activity testing.
The activity assay was performed in triplicates with three sets of conditioned media at pH 9.3 under standard conditions as described earlier (4) with some modifications; no BSA was added to the reaction mixture and 2 mM DTT or 5 mM GSH were used as reducing agents.
The inventors have recently shown that the N-terminal part of FGE (residues 34-68) is essential to activate sulfatases in vivo (12). By contrast, the N-terminal extension was not required for in vitro FGly-generating activity of purified secreted Δ72-FGE. […] To assess the physiological consequence of the N-terminal truncation by furin on the function of FGE, the inventors analyzed the FGly-generating activity of the processed and the unprocessed forms of secreted FGE in the presence of glutathione (GSH), a physiological reductant, or DTT serving as a control. […]

steroid sulfatase (STS) = assay: Steroid sulfatase (STS) activity assay after co-expression with FGE in MSDi Tet-On cells; type: cell-based, human; settings: vs STS expressed alone; doxycycline induction
Procedure: Activity assays of STS were performed as described earlier (15, 23). For western blot analysis, polyclonal antisera against FGE and steroid sulfatase were used as primary antibodies. Horseradish peroxidase-conjugated goat anti-rabbit antibody was used as secondary antibodies. Signals of steroid sulfatase are given as relative amounts, i.e. related to signal intensities detected in cells expressing steroid sulfatase only. Relative specific sulfatase activities were calculated, i.e. catalytic activity divided by the western blot signal (arbitrary units) and referred to that of cells expressing the sulfatase only (relative specific sulfatase activity=1). Absolute values for this reference are given in the legends.
Using this method the inventors examined whether the RYSR motif is required for the activation of sulfatases. cDNAs encoding steroid sulfatase (STS) alone or co-transfected along with cDNAs encoding RYSR-motif alanine variants of FGE in immortalized MSD Tet-On cells were transfected (FIG. 9C). Upon doxycycline induction, STS was barely active when expressed alone, whereas co-expression with FGE-wt increased the activity of STS approx. 50-fold, as observed previously (12).

furin = furin (Homo sapiens, UniProt P09958); assay: FGE processing in CHO-FD11 cells co-expressing furin; type: cell-based; set-up: expressed in transfected cells; host or cells: CHO-FD11 / CHO-FD11 Tet-On (furin-deficient CHO) cells, transient co-transfection with FGE
Chain of furin (P09958 108-794): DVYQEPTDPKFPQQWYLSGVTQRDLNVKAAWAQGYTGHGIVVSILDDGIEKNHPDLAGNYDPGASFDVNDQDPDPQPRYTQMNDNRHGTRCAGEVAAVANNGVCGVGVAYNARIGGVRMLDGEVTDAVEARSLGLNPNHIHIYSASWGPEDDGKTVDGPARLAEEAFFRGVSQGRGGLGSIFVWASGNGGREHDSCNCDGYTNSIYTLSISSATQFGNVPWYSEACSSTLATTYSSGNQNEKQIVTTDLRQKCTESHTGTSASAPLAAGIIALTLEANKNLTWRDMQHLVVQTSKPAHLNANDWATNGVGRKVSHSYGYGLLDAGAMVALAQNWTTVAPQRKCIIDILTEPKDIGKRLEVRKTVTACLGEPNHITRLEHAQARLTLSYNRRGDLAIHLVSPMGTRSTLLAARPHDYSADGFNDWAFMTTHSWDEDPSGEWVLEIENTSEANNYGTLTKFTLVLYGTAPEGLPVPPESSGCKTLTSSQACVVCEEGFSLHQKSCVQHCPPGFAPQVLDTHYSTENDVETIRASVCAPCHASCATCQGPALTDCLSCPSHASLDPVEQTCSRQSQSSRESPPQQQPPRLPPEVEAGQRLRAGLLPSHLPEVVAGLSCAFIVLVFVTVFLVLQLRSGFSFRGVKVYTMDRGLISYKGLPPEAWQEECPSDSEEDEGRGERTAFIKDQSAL
Excerpt: The resulting constructs were verified by full-length sequencing of the coding region to exclude any PCR prone errors. Plasmids for expression of the PCs encoding human furin (Gene ID 5045), human PACE4 (=PCSK6, Gene ID 5046), murine […] (=Pcsk5, Gene ID 18552) and rat PC7 (=Pcsk7, Gene ID 29606) were kindly provided by Abdel-Majid Khatib (18). Note that the PC cDNAs were encoded as pIRES constructs coding also for enhanced green fluorescence protein (EGFP) such that EGFP expression levels serve as a measure of the expression levels of PCs.
3 μg of pSB-FGE-RGS-His6 vector was used for single transfections of HT1080, HeLa, HEK 293, BHK and CHO cells. Conditioned medium was collected after 24 h and centrifuged (500×g, 5 min) Cells were washed once with PBS, treated with trypsin (Lonza) and pelleted by 250×g to remove the medium. Cell pellets were resuspended in PBS (pH 7.4) containing protease inhibitor (PI) cocktail (Sigma) and lysed by sonication 3×10 s on ice. […]
In mammals, the proproteinconvertase family comprises nine enzymes that differ in their substrate specificity and tissue-specific expression and/or subcellular localization (17). […] Indeed, rFurin readily converted almost 90% of endogenous fl-FGE from untransfected HT1080 cells to the truncated form (FIG. 12E). […]

B1: FGE: human wild type full length formylglycine generating enzyme with RYSR furin cleavage motif, SEQ ID NO:2 (protein)
chain: ADEFSQEAGTGAGAGSLAGSCGCGTPQRPGAHGSSAAAHRYSREANAPGPVPGERQLAHSKMVPIPAGVFTMGTDDPQIKQDGEAPARRVTIDAFYMDAYEVSNTEFEKFVNSTGYLTEAEKFGDSFVFEGMLSEQVKTNIQQAVAAAPWWLPVKGANWRHPEGPDSTILHRPDHPVLHVSWNDAVAYCTWAGKRLPTEAEWEYSCRGGLHNRLFPWGNKLQPKGQHYANIWQGEFPVTNTGEDGFQGTAPVDAFPPNGYGLYNIVGNAWEWTSDWWTVHHSVEETLNPKGPPSGKDRVKKGGSYMCHRSYCYRYRCAARSQNTPDSSASNLGFRCAADRLPTMDSGRGSHHHHHHH
modifications: cloned matured acitve full length FGE with 6x His tag on C-terminus
FGly-generating activity (% substrate turnover) in the presence of GSH normalized to that of DTT (100%) [1]: as active with GSH as with DTT | increase of STS activity on co-expression (steroid sulfatase (STS)): approx. 50 fold | Δ72-FGE in secretions (furin; coexpression of furin, CHO-FD11 Tet-On): ~100% | form of secreted FGE (furin; furin replenished by exogenous expression): all secreted FGE was in the truncated form
